Experimental data reported in publication PMC10877986 (mAbs, 2024).
Where a chain is given by its changes, count along the chain named. Like-named read-outs stand apart in the source and are kept apart here. Blank lines part the entries; values can stand above or below the binder they belong to.

Key:
Experiment in all cases: SPR
[1] = molecular target: recombinant cynomolgus monkey PD-1 (Macaca fascicularis (cynomolgus monkey), UniProt B0LAJ3)
recombinant mouse PD-1 = recombinant mouse PD-1 (Mus musculus, UniProt Q02242)
recombinant human PD-1 [2] = molecular target: T1, recombinant human PD-1 (Homo sapiens, UniProt Q15116)
recombinant human PD-1 [3] = molecular target: T1, recombinant human PD-1; remark: listed apart in the source

T1 sequence (Q15116 25-170): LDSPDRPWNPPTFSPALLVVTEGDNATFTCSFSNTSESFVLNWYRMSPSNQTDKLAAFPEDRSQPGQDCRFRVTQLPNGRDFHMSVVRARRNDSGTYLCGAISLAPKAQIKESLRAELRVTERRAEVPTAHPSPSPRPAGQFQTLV
recombinant mouse PD-1, sequence (Q02242 25-169): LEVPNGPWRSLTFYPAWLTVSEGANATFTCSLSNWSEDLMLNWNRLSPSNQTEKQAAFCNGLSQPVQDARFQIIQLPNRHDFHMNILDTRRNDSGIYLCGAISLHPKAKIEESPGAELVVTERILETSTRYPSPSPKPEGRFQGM

B1: h1340.CC (antibody, V domains shown)
VH: EQQLVESGGGVVQPGRSLRLSCAASGFSFSSTYWICWVRQAPGKGLEWIACIYAGSSGNTYYANWAKGRFTISKDSSSTTVFLQMNSLRAEDTAVYFCARAGGAGGGVYTLTRLDLWGQGTLVTVSS
VL: AAQLTQSPSSLSASVGDRVTITCQSSQSVYNNNDLAWYQQKPGKPPKLLIYTPSSLTSGVPSRFSGSGSGTDFTLTISSLQPEDFATYYCLGGYDDDSDNAFGGGTKVEIK
Kd [1]: 0.42 nM
Kd (recombinant mouse PD-1): 1.72 nM
Kd (recombinant human PD-1 [2]): 0.3 nM
Kd (recombinant human PD-1 [3]): 0.1 nM

B3: h1340.SA.6 (antibody, V domains shown)
VH: B1 VH with C36S, C51A, A101S
VL: B1 VL
binding result (recombinant human PD-1 [3]): binds

B5: h1340.SA.3 (antibody, V domains shown)
VH: B1 VH with S30D, C36S, C51A
VL: B1 VL
binding result (recombinant human PD-1 [3]): binds

Results, then the binder that gave them:

binding result (recombinant human PD-1 [3]): binds
B2: h1340.SA.5 (antibody, V domains shown)
VH: B1 VH with C36S, C51A, A54L
VL: B1 VL

fold decrease in affinity against rbt1340 [1]: 6 fold
fold decrease in affinity against h1340.CC (recombinant mouse PD-1): ~4 fold
fold decrease in affinity against h1340.CC (recombinant human PD-1 [2]): ~2.5 fold
fold decrease in affinity against rbt1340 (recombinant human PD-1 [2]): 4 fold
Kd (recombinant human PD-1 [3]): 0.7 nM
B4: h1340.SA (antibody, V domains shown)
VH: B1 VH with C36S, C51A
VL: B1 VL

binding result (recombinant human PD-1 [3]): binds
B6: h1340.AA (antibody, V domains shown)
VH: B1 VH with C36A, C51A
VL: B1 VL
